This passage reports Q2 (percent double-positive, conjugated cells) results from patent US20160159927A1.

For experiment [1], the target named is VSIG8 (over-expressed on cells; species not stated) (Homo sapiens (Human)) (UniProt P0DPA2). Put plainly: cell-cell conjugation: two differently dye-labelled lots of A20-VSIG8 cells mixed, double-positive events read by flow cytometry (negative control). Background: A flow cytometer gives signals particle by particle.
In experiment [2] the target is PD1 (over-expressed on cells). The experiment is described as follows: cell-cell conjugation: dye-labelled A20-PD-L1 and A20-PD1 cells mixed, double-positive events read by flow cytometry (positive control).
The target of experiment [3] is VSIG8 (over-expressed on cells; species not stated) (Homo sapiens (Human)) (UniProt P0DPA2). Put plainly: cell-cell conjugation: dye-labelled A20-VISTA and A20-VSIG8 cells mixed, double-positive events read by flow cytometry.

In experiment [1], “VSIG8 (over-expressed on cells; species not stated) (from UniProt P0DPA2 22-414) (receptor)” yielded a Q2 (percent double-positive, conjugated cells) of 3.92.

Take “PD-L1 (over-expressed on A20 cells) (ligand)”: in experiment [2], the Q2 (percent double-positive, conjugated cells) was found to be 28. Substance “VISTA (over-expressed on A20 cells; species not stated) (from UniProt Q9H7M9 33-311) (ligand)” showed a Q2 (percent double-positive, conjugated cells) in experiment [3] of 11.4.
